The source of these data is patent US20190330321A1 (UCB, published 2019).

Common to all, as to test: cell-based or functional assay
For one experiment, the target named is mature human TGF-beta 1 (human, UniProt P01137 279-390).
A further experiment addresses T1, mature human TGF-beta 3 (human, UniProt P10600 301-412).
T1 sequence: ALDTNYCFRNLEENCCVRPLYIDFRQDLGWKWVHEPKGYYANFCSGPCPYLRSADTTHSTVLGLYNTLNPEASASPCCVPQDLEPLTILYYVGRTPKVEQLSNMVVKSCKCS

The target in a further experiment is T2, mature human TGF-beta 2 (human, UniProt P61812 303-414).
T2 sequence: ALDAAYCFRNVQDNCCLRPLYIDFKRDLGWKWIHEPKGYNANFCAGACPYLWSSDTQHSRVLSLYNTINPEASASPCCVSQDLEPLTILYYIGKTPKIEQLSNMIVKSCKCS

Experiment [1] deals with endogenously produced TGF-beta (isoform not given).

Sequence of mature human TGF-beta 1 (P01137 279-390 limits assumed): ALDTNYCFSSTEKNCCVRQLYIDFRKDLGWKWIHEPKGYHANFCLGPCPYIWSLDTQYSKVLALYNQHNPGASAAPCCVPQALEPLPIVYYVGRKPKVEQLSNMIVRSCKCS

B1: 4856 rabbit Fab (Fab, V domains shown)
VH: QSLEESGGRLVTPGTPLTLTCTASGFSLSSYDMSWVRQAPGKGLEWIGIIYGGSGSTWYASWAKGRFTMSKTSTTVDLKITSPTTEDMATYFCARGRDGGAGGSRNGYSLWGQGTLVTVSS
VL: AYDMTQTPASVEVAVGGTVTIKCQASESIYSGLAWYQQTPGQRPKLLIYAASDLASGVPSRFKGSGSGTEYTLTISGVECADAATYYCQQTWTDGGIDNPFGGGTEVVVKR
On to B1, for which the “Geomean IC50, HEK-Blue TGF-beta reporter gene assay” value with mature human TGF-beta 1 was 1.77 not clear (head says nM); in the experiment with mature human TGF-beta 3, 24.5 not clear (head says nM); in the experiment with mature human TGF-beta 2, 0.3 not clear (head says nM).

B2: 4856 rabbit Fab (Fab)
heavy: QSLEESGGRLVTPGTPLTLTCTASGFSLSSYDMSWVRQAPGKGLEWIGIIYGGSGSTWYASWAKGRFTMSKTSTTVDLKITSPTTEDMATYFCARGRDGGAGGSRNGYSLWGQGTLVTVSSGQPKAPSVFPLAPCCGDTPSSTVTLGCLVKGYLPEPVTVTWNSGTLTNGVRTFPSVRQSSGLYSLSSVVSVTSSSQPVTCNVAHPATNTKVDKTV
light: AYDMTQTPASVEVAVGGTVTIKCQASESIYSGLAWYQQTPGQRPKLLIYAASDLASGVPSRFKGSGSGTEYTLTISGVECADAATYYCQQTWTDGGIDNPFGGGTEVVVKRTPVAPTVLIFPPAADQVATGTVTIVCVANKYFPDVTVTWEVDGTTQTTGIENSKTPQNSADCTYNLSSTLTLTSTQYNSHKEYTCKVTQGTTSVVQSFNRGDC
In turn, B2 registered a Geomean IC50, BxPC3-HEK-Blue TGF-beta reporter gene co-culture assay in experiment [1] of 3.7 nM.

B3: antibody 4856 gL3gH13 Fab (humanised) (Fab)
heavy: EVQLVESGGGLVKPGGSLRLSCAASGFSLSSYDMSWVRQAPGKGLEWIGIIYGGSGSTWYASWAKGRFTISRDSAKNSVYLQMNSLRAEDTAVYYCARGRDAGAGGSRNGYSLWGQGTLVTVSSASTKGPSVFPLAPSSKSTSGGTAALGCLVKDYFPEPVTVSWNSGALTSGVHTFPAVLQSSGLYSLSSVVTVPSSSLGTQTYICNVNHKPSNTKVDKKVEPKSC
light: AYDMTQSPSTLSASVGDRVTITCQASESIYSGLAWYQQKPGKAPKLLIYAASDLASGVPSRFSGSGSGTEYTLTISSLQPDDFATYYCQQTWTDGGIDNPFGGGTKVEIKRTVAAPSVFIFPPSDEQLKSGTASVVCLLNNFYPREAKVQWKVDNALQSGNSQESVTEQDSKDSTYSLSSTLTLSKADYEKHKVYACEVTHQGLSSPVTKSFNRGEC
In experiment [1], B3 yielded an IC50, Collagen I&III deposition, RPTEC and HRF co-culture, N = 1 of 22.4 nM; an IC50, Collagen I&III deposition, RPTEC and HRF co-culture, N = 2 of 48 nM; an IC50, Collagen V deposition, RPTEC and HRF co-culture, N = 1 of 38.9 nM; an IC50, Collagen V deposition, RPTEC and HRF co-culture, N = 2 of 81.6 nM. Also, in experiment [1], the IC50, Fibronectin deposition, RPTEC and HRF co-culture, N = 1 turned out to be 32.6 nM; the IC50, Fibronectin deposition, RPTEC and HRF co-culture, N = 2 was determined as 27.1 nM; the IC50 Geo Mean, Collagen I&III deposition, RPTEC and HRF co-culture is 32.8 nM; the IC50 Geo Mean, Collagen V deposition, RPTEC and HRF co-culture stood at 56.3 nM. In experiment [1], the IC50 Geo Mean, Fibronectin deposition, RPTEC and HRF co-culture was 29.7 nM; the IC50 geometric mean, BxPC3 and HEK-Blue TGF-beta co-culture assay came out at 3.95 nM.

B4: antibody 4856 gL3gH29 Fab (humanised) (Fab)
heavy: EVQLVESGGGLVKPGGSLRLSCAASGFSLSSYDMSWVRQAPGKGLEWIGIIYGGSGSTWYASWAKGRFTISRDSAKNSVYLQMNSLRAEDTAVYYCARGRDAGAGGSRDGYSLWGQGTLVTVSSASTKGPSVFPLAPSSKSTSGGTAALGCLVKDYFPEPVTVSWNSGALTSGVHTFPAVLQSSGLYSLSSVVTVPSSSLGTQTYICNVNHKPSNTKVDKKVEPKSC
light: AYDMTQSPSTLSASVGDRVTITCQASESIYSGLAWYQQKPGKAPKLLIYAASDLASGVPSRFSGSGSGTEYTLTISSLQPDDFATYYCQQTWTDGGIDNPFGGGTKVEIKRTVAAPSVFIFPPSDEQLKSGTASVVCLLNNFYPREAKVQWKVDNALQSGNSQESVTEQDSKDSTYSLSSTLTLSKADYEKHKVYACEVTHQGLSSPVTKSFNRGEC
The molecule B4 showed an IC50 geometric mean, BxPC3 and HEK-Blue TGF-beta co-culture assay in experiment [1] of 3.77 nM.

B5: antibody 4856 gL3gH20 Fab (humanised) (Fab)
heavy: EVQLVESGGGLVKPGGSLRLSCAASGFSLSSYDMSWVRQAPGKGLEWISIIYGGSGSTWYASWAKGRFTMSKDSAKNSVYLQMNSLRAEDTAVYYCARGRDAGAGGSRNGYSLWGQGTLVTVSSASTKGPSVFPLAPSSKSTSGGTAALGCLVKDYFPEPVTVSWNSGALTSGVHTFPAVLQSSGLYSLSSVVTVPSSSLGTQTYICNVNHKPSNTKVDKKVEPKSC
light: AYDMTQSPSTLSASVGDRVTITCQASESIYSGLAWYQQKPGKAPKLLIYAASDLASGVPSRFSGSGSGTEYTLTISSLQPDDFATYYCQQTWTDGGIDNPFGGGTKVEIKRTVAAPSVFIFPPSDEQLKSGTASVVCLLNNFYPREAKVQWKVDNALQSGNSQESVTEQDSKDSTYSLSSTLTLSKADYEKHKVYACEVTHQGLSSPVTKSFNRGEC
Take B5: the IC50 geometric mean, BxPC3 and HEK-Blue TGF-beta co-culture assay in experiment [1] was 4.63 nM.

B6: antibody 4856 gL3gH23 Fab (humanised) (Fab)
heavy: EVQLVESGGGLVKPGGSLRLSCAASGFSLSSYDMSWVRQAPGKGLEWIGIIYGGSGSTWYASWAKGRFTISRDSAKNSVYLQMNSLRAEDTAVYYCARGRDAGAGGSRNAYSLWGQGTLVTVSSASTKGPSVFPLAPSSKSTSGGTAALGCLVKDYFPEPVTVSWNSGALTSGVHTFPAVLQSSGLYSLSSVVTVPSSSLGTQTYICNVNHKPSNTKVDKKVEPKSC
light: AYDMTQSPSTLSASVGDRVTITCQASESIYSGLAWYQQKPGKAPKLLIYAASDLASGVPSRFSGSGSGTEYTLTISSLQPDDFATYYCQQTWTDGGIDNPFGGGTKVEIKRTVAAPSVFIFPPSDEQLKSGTASVVCLLNNFYPREAKVQWKVDNALQSGNSQESVTEQDSKDSTYSLSSTLTLSKADYEKHKVYACEVTHQGLSSPVTKSFNRGEC
B6 yielded an IC50 geometric mean, BxPC3 and HEK-Blue TGF-beta co-culture assay in experiment [1] of 9.1 nM.
